{
  "source": "patent US20060003434",
  "system": "T1, FLAG-Heme1B (human Eme1B, FLAG tagged at the C terminus)",
  "T1 sequence": "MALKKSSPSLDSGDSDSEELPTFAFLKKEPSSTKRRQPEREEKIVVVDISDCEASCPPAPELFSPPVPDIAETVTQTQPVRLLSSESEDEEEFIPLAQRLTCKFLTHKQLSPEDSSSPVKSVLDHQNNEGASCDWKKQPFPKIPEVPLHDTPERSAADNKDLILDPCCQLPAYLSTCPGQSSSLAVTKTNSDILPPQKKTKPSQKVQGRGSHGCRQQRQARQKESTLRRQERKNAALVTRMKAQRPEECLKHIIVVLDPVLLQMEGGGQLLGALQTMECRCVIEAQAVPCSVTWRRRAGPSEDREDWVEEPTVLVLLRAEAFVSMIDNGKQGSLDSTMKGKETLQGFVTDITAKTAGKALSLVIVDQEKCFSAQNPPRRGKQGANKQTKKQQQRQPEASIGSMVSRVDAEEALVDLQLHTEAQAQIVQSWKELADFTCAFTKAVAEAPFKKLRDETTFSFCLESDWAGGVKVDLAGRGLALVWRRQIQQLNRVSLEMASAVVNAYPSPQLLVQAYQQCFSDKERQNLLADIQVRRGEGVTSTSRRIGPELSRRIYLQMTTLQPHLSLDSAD",
  "data": [
    {"substance": "3HaMus81 (triple hemagglutinin (3Ha) tagged Hmus81), wild type", "values": [
      {"measurement": "endonuclease activity of immune-precipitates on a 3' flap substrate", "value": "The activity of 3HaMus81 was greatly increased in cells that had been co-transfected with FLAG-Eme1B"}
    ]}
  ]
}
